Results as given in article PMC12285911 (2025).

Target: T1, ^FAMFAT10 (GG–FAT10 N-terminally labeled with fluorescein amidite by sortase) (human, 5-FAM on the N terminus (5-FAM conjugated to the N terminus of the peptide …, attached by sortase))
T1 chain: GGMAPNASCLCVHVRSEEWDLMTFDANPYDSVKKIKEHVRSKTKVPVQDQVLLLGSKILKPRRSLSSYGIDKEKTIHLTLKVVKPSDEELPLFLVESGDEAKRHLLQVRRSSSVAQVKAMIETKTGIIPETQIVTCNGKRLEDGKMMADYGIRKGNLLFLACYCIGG
Experiment: FP

- Kd: 152 nM
B1: NUB1^Δ1–175 (domain or fragment)
chain: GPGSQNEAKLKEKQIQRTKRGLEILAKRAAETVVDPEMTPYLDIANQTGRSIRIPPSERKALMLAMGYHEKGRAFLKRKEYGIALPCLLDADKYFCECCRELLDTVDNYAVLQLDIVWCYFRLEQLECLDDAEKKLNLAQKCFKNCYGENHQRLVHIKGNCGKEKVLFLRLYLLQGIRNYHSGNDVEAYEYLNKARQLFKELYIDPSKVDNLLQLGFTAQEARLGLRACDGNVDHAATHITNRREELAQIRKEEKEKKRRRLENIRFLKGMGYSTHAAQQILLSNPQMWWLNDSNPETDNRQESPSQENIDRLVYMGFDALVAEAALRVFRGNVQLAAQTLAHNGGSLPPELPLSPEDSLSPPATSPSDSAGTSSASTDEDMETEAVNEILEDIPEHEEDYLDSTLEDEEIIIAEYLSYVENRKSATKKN
